The record followed here is paper PMC4558205 (Structure (London, England : 1993), 2015).

Data set [1] concerns the molecule itself. Put plainly: crystal structure.
Data set [2] addresses Mj0480, archaeal DUF106 protein from Methanocaldococcus jannaschii (Methanocaldococcus jannaschii, UniProt Q57904). As to the kind of experiment: SEC. Background: Size exclusion chromatography separates by hydrodynamic size, large species first.

B1: Mj0480, archaeal DUF106 protein from Methanocaldococcus jannaschii (natural protein, UniProt Q57904 1-198, looked up)
chain: MFGSIFDIYYKTLDAIFMPIIKVLHPALAILIIAIIVSLIINIATKLLVDQKRVAELKKEIQEFQVKFKKMSKNPEMMEKLQEEQQRIMQLNAELMKMSFRPMIYTWVPIILIFIYLRHVYGFGGVYQELNPGWNGVVVYLPIILSKILFIDFWHWLGSIFYKGGFKIVSNTALGWLGWYILCSFATSTVLRKILGIK
B1: the binding result in data set [1] was “binds”.

B2: synthetic antibody fragment (sAB) M1 (Fab, V domains shown)
VH: EVQLVESGGGLVQPGGSLRLSCAASGFNFSSSSIHWVRQAPGKGLEWVASISPSYGYTYYADSVKGRFTISADTSKNTAYLQMNSLRAEDTAVYYCARGIWSYWYMVYPHDNYGMDYWGQGTLVTVSS
VL: DIQMTQSPSSLSASVGDRVTITCRASQSVSSAVAWYQQKPGKAPKLLIYSASSLYSGVPSRFSGSRSGTDFTLTISSLQPEDFATYYCQQSSSRPVTFGQGTKVEIK
One may read the stoichiometry N as a count of units in the complex or per binding partner. As to B2, in data set [2], the “stoichiometry N” value was found to be 1.
